The source of these data is paper doi:10.1101/2025.01.03.631197.

This test addresses EPHA2 (human (endogenous in HSC-4)) (UniProt P29317). Description: proximity ligation.
Chain of UniProt P29317 (P29317 24-976): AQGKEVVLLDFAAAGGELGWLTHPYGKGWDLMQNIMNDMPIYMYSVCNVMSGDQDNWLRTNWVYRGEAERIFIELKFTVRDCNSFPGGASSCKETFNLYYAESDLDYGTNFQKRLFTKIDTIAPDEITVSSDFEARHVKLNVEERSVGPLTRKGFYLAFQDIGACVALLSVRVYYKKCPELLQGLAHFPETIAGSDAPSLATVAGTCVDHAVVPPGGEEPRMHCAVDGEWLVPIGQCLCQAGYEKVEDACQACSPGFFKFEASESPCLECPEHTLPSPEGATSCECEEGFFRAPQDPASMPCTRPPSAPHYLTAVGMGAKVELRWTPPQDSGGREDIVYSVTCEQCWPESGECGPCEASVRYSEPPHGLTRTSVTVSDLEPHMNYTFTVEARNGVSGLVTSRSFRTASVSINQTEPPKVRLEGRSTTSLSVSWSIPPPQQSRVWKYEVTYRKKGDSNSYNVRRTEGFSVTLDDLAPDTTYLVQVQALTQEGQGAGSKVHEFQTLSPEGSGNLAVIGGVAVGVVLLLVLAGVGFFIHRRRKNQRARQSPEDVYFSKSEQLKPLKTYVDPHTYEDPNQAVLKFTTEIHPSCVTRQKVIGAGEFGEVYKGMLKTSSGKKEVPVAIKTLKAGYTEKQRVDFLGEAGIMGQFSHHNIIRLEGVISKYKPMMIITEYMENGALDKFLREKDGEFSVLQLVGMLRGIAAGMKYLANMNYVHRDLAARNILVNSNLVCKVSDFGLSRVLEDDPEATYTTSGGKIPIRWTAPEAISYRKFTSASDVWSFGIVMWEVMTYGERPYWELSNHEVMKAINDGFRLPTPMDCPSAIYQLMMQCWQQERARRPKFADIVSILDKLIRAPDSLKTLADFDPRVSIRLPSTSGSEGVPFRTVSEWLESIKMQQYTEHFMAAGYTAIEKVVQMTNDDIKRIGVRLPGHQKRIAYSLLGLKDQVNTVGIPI

“Ephrin-B1 phosphorylated at Y324/329 (ligand)” displayed a PLA foci per cell (foci per cell) of 2.
